{
  "source": "patent US20140356376",
  "key": {"[1]": {"target": "thioFAB 4497 MP-LAFAA-QSY7"}, "[2]": {"target": "thioFAB 4497 MP-LAFGA-QSY7"}, "[3]": {"target": "thio-S4497 HC v1-MP-LAFG-PABC-(piperazinoBOR) AAC-193"}},
  "data": [
    {"protein": "staphopain A (protein) YNEQYVNKLENFKIRETQGNNGWCAGYTMSALLNATYNTNKYHAEAVMRFLHPNLQGQQFQFTGLTPREMIYFEQTQGRSPQLLNRMTTYNEVDNLTKNNKGIAILGSRVESRNGMHAGHAMAVVGNAKLNNGQEVIIIWNPWDNGFMTQDAKNNVIPVSNGDHYQWYSSIYGY", "values": [
      {"measurement": "Percent cleavage pH 7.2", "setting": "[1]", "value": 23, "unit": "%"},
      {"measurement": "Percent cleavage pH 7.2", "setting": "[2]", "value": 38, "unit": "%"},
      {"measurement": "Percent cleavage pH 5", "setting": "[3]", "value": 100, "unit": "%"},
      {"measurement": "Percent cleavage pH 7.2", "setting": "[3]", "value": 46, "unit": "%"}
    ]}
  ]
}
